Test results: patent US20230399394A1 (SUNSHINE GUOJIAN PHARMACEUTICAL SHANGHAI, published 2023)
Numbering of substitutions follows the chain as printed.

T1: Pep2 (human, N-terminal biotin)
T1 construct: Synthetic 20-mer of human IL-33
T1 peptide: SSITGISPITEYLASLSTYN

T2: Pep5 (human, N-terminal biotin)
T2 construct: Synthetic 20-mer of human IL-33
T2 peptide: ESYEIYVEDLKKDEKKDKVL

T3: Pep9 (human, N-terminal biotin)
T3 construct: Synthetic 20-mer of human IL-33
T3 peptide: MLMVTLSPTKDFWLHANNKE

T4: Pep3 (human, N-terminal biotin)
T4 construct: Synthetic 20-mer of human IL-33
T4 peptide: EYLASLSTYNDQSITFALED

T5: Pep7 (human, N-terminal biotin)
T5 construct: Synthetic 20-mer of human IL-33
T5 peptide: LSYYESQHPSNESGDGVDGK

T6: Pep15 (human, N-terminal biotin)
T6 construct: Synthetic 20-mer of human IL-33
T6 peptide: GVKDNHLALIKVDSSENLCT

T7: Pep11 (human, N-terminal biotin)
T7 construct: Synthetic 20-mer of human IL-33
T7 peptide: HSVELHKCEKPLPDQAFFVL

T8: Pep16 (human, N-terminal biotin)
T8 construct: Synthetic 20-mer of human IL-33
T8 peptide: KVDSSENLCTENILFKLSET

T9: Pep1 (human, N-terminal biotin)
T9 construct: Synthetic 20-mer of human IL-33
T9 peptide: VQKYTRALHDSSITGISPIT

T10: Pep13 (human, N-terminal biotin)
T10 construct: Synthetic 20-mer of human IL-33
T10 peptide: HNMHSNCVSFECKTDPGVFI

T11: Pep4 (human, N-terminal biotin)
T11 construct: Synthetic 20-mer of human IL-33
T11 peptide: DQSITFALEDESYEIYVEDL

T12: Pep8 (human, N-terminal biotin)
T12 construct: Synthetic 20-mer of human IL-33
T12 peptide: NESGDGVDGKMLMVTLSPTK

T13: Pep12 (human, N-terminal biotin)
T13 construct: Synthetic 20-mer of human IL-33
T13 peptide: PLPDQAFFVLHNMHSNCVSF

T14: Pep14 (human, N-terminal biotin)
T14 construct: Synthetic 20-mer of human IL-33
T14 peptide: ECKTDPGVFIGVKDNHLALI

T15: Pep10 (human, N-terminal biotin)
T15 construct: Synthetic 20-mer of human IL-33
T15 peptide: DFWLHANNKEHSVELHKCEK

T16: IL-33 mutant protein Q57A (human, UniProt O95760 112-270)
T16 construct: Prokaryotic expression
T16 chain: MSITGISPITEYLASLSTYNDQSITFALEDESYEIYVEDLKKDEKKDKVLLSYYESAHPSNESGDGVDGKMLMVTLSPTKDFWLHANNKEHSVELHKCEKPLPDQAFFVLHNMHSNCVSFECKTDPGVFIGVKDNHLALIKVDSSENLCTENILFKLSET

T17: IL-33 mutant protein K48A (human, UniProt O95760 112-270)
T17 construct: Prokaryotic expression
T17 chain: T16 chain with K48A, A57Q

B1: 874F7 (antibody, V domains shown)
VH: QVQLKESGPGLVAPSHSLSITCNVSGFSLSKYGVHWIRQIPGRGLDWLGVLRAGGSTGYNSALMSRLSISKDSSKSQVFLKMNDLRTDDTAVYFCVRDHYYYSSYGGFVYWGQGTLVTVSA
VL: DIQMTQSPASQSASLGESVTITCLASQTIGAWLAWYRQQPGKSPQLLIYAATRLADGVPSRFSGSGSGTEFSFKINNLQAEDFVSYYCQQLDSSPYTFGGGTRLEM
notes: Murine hybridoma antibody purified on Protein G; also called murine antibody 874F7
B2: 874F7-Hu1 (antibody, human IgG4 S228P, kappa)
heavy: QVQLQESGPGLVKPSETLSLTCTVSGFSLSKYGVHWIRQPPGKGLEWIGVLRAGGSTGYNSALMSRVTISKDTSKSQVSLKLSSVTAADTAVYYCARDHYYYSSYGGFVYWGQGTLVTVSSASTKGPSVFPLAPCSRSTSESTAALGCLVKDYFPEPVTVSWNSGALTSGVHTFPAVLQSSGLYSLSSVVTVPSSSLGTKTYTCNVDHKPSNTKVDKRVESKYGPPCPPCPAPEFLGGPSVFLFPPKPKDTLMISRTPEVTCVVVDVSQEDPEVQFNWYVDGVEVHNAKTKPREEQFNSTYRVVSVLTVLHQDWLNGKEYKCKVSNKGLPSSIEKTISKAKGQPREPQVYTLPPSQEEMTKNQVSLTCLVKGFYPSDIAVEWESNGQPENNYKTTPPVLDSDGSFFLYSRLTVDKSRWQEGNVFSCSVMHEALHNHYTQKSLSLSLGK
light: DIQMTQSPSSVSASVGDRVTITCLASQTIGAWLAWYQQKPGKSPKLLIYAATRLADGVPSRFSGSGSGTDFTLTISSLQPEDFATYYCQQLDSSPYTFGQGTKVEIKRTVAAPSVFIFPPSDEQLKSGTASVVCLLNNFYPREAKVQWKVDNALQSGNSQESVTEQDSKDSTYSLSSTLTLSKADYEKHKVYACEVTHQGLSSPVTKSFNRGEC
notes: also called 874F7-Hul; humanized antibody 874F7-Hu1

Legend:
[1] = molecular target: T1, Pep2; assay: ELISA, biotinylated peptide on streptavidin plate
Experimental: (§1) To determine the binding activity of antibody to each polypeptide fragment, the ELISA plate was pre-coated by biotin-avidin (SA) which was diluted in coating solution (50 mM carbonate coating buffer, pH 9.6) to 2 μg/ml at 4° C. overnight. The plate was washed with PBST for 3 times, and then blocked with 2% BSA prepared in PBS at room temperature for 2 h with 200 μL/well. The plate was washed once with PBST, and 864F3 and 874F7 with final concentrations of 10 μg/mL were added at 100 μL/well, respectively, and the plate was incubated at room temperature for 1 h. The plate was washed with PBST for 3 times, and the goat anti-mouse IgG labeled by HRP was added and placed at 37° C. for 30 min. After washing the plate with PBST for 3 times, the plate was patted on the absorbent paper to remove residual droplets as far as possible. 100 μl TMB developing solution was added to each well, and the plate was placed at room temperature (20±5° C.) for 5 minutes away from light; 50 μl 2M H₂SO₄ terminating solution was added to each well to terminate the substrate reaction. OD values were read at 450 nm on the microplate reader to analyze the binding ability of the antibody to each polypeptide fragment. The experimental results are shown in […]

[2] = molecular target: T2, Pep5; assay: ELISA, biotinylated peptide on streptavidin plate
Experimental: as §1

[3] = molecular target: T3, Pep9; assay: ELISA, biotinylated peptide on streptavidin plate
Experimental: as §1

[4] = molecular target: T4, Pep3; assay: ELISA, biotinylated peptide on streptavidin plate
Experimental: as §1

[5] = molecular target: T5, Pep7; assay: ELISA, biotinylated peptide on streptavidin plate
Experimental: as §1

[6] = molecular target: T6, Pep15; assay: ELISA, biotinylated peptide on streptavidin plate
Experimental: as §1

[7] = molecular target: T7, Pep11; assay: ELISA, biotinylated peptide on streptavidin plate
Experimental: as §1

[8] = molecular target: T8, Pep16; assay: ELISA, biotinylated peptide on streptavidin plate
Experimental: as §1

[9] = molecular target: T9, Pep1; assay: ELISA, biotinylated peptide on streptavidin plate
Experimental: as §1

[10] = molecular target: T10, Pep13; assay: ELISA, biotinylated peptide on streptavidin plate
Experimental: as §1

[11] = molecular target: T11, Pep4; assay: ELISA, biotinylated peptide on streptavidin plate
Experimental: as §1

[12] = molecular target: T12, Pep8; assay: ELISA, biotinylated peptide on streptavidin plate
Experimental: as §1

[13] = molecular target: T13, Pep12; assay: ELISA, biotinylated peptide on streptavidin plate
Experimental: as §1

[14] = molecular target: T14, Pep14; assay: ELISA, biotinylated peptide on streptavidin plate
Experimental: as §1

[15] = molecular target: T15, Pep10; assay: ELISA, biotinylated peptide on streptavidin plate
Experimental: as §1

[16] = molecular target: T16, IL-33 mutant protein Q57A; assay: ELISA as Example 9; row Q57A against WT-1
Experimental: (§2) SA protein was diluted to 2 μg/mL to coat ELISA plate at 100 μL/well overnight at 4° C. The plate was washed with PBST (PBS containing 0.05% Tween20) for 3 times, and blocked with 2% BSA prepared in PBS at 200 μL/well, at room temperature for 2 h. After the plate was washed twice with PBST, IL-33-his-biotin protein was diluted to 1 μg/mL with 1% BSA prepared in PBST, and was added to ELISA plate at 100 μL/well. The plate was incubated at room temperature for 1 h, and each monoclonal antibody was diluted with 1% BSA prepared in PBST in a 3-fold gradient. The highest concentration of antibody was 10 μg/mL, and the antibody was diluted for 12 gradients. Each diluted monoclonal antibody was added to ELISA wells with 100 μL/well, and the plate was incubated at room temperature for 1 h. Each sample was added to duplicate wells in parallel. The plate was washed with PBST for 3 times, and HRP-anti human IgG Fc secondary antibody prepared with PBST was diluted at an appropriate ratio, and was added to ELISA wells at 100 μL/well. […] Each reaction solution was shaken uniformly and OD450 nm was read on a microplate reader. The data was analyzed and EC₅₀ was calculated.
(§3) Subsequently, according to the experimental method of Example 9, the affinity of the above mutant proteins to 874F7-Hu1 was determined, and IL-33 proteins (WT-1, WT-2, WT-3, and WT-4) without any mutation were set as controls.

[17] = molecular target: T17, IL-33 mutant protein K48A; assay: ELISA as Example 9; row K48A against WT-2
Experimental: as §2, §3

binding result [1] | binding result [2] | binding result [3] | binding result [4] | binding result [5] | binding result [6] | binding result [7] | binding result [8] | binding result [9] | binding result [10] | binding result [11] | binding result [12] | binding result [13] | binding result [14] | binding result [15] | Affinity decline ratio [16] [fold] | Affinity decline ratio [17] [fold] | Binder
no binding (tested: 10 µg/mL) | no binding (tested: 10 µg/mL) | no binding (tested: 10 µg/mL) | no binding (tested: 10 µg/mL) | no binding (tested: 10 µg/mL) | no binding (tested: 10 µg/mL) | no binding (tested: 10 µg/mL) | no binding (tested: 10 µg/mL) | no binding (tested: 10 µg/mL) | no binding (tested: 10 µg/mL) | no binding (tested: 10 µg/mL) | no binding (tested: 10 µg/mL) | no binding (tested: 10 µg/mL) | no binding (tested: 10 µg/mL) | no binding (tested: 10 µg/mL) |  |  | B1
 |  |  |  |  |  |  |  |  |  |  |  |  |  |  | 0.5 | 3.7 | B2
